Publication PMC11096021 (Immunity, 2024)

Target: A/Perth/16/2009 H3 trimer (biotinylated, for BLI) (Influenza A virus A/Perth/16/2009 (H3N2), strain, biotin on the avi tag (BirA))
Experiment: BLI
Settings: both partners purified

B1: 09–1B12 Fab (mature; Lys-C digest of recombinant IgG, used for BLI) (Fab, V domains shown)
VH: QVQLVQSAPEVKRPGASVRLSCKASGYTFNTYGIIWVRQAPGQGLEWMGWISAYTGNTNYAQKVQGRVTMTTDITTSTAYLELRGLRSDDTAVYYCARGLLQGAVILDSYHYALDFWGQGTTVTVSS
VL: EIVLTQSPGTLSLSPGERATLSCRASQSVTNRFIAWYQHKPGQSPRLLIYGASSRATGIPDRFSGRGSGTDFTLTISRLEPEDFAVYYCQQYDTSPRWTFGQGTKLEIK
B1: binds.
